{
  "source": "the MegaScale stability set (Tsuboyama et al. 2023)",
  "parents": {"B1": {"name": "EHEE_rd4_0086 (parent)", "chain": "EIHIRTNGEEQARKVYKMLAKRNYDVKIEQHNGQWVVTAS"}},
  "data": [
    {"variants_of": "B1", "assay": "folding stability dG (cDNA display proteolysis); higher = more stable", "conditions": "PBS, room temperature", "units": {"folding stability dG": "kcal/mol"}, "values": [
      {"variant": "EIHIRVNGEEQARKVYKMLAKRNYDVKIEQHNGQWVVTAS", "folding stability dG": 2.55},
      {"variant": "EIHIRHNGEEQARKVYKMLAKRNYDVKIEQHNGQWVVTAS", "folding stability dG": 0.847},
      {"variant": "EIHIRQNGEEQARKVYKMLAKRNYDVKIEQHNGQWVVTAS", "folding stability dG": 0.309},
      {"variant": "EIHIRSNGEEQARKVYKMLAKRNYDVKIEQHNGQWVVTAS", "folding stability dG": 1.16},
      {"variant": "EIHIRWNGEEQARKVYKMLAKRNYDVKIEQHNGQWVVTAS", "folding stability dG": 0.843},
      {"variant": "EIHIRRNGEEQARKVYKMLAKRNYDVKIEQHNGQWVVTAS", "folding stability dG": 0.963},
      {"variant": "EIHIRENGEEQARKVYKMLAKRNYDVKIEQHNGQWVVTAS", "folding stability dG": 0.299},
      {"variant": "EIHIRMNGEEQARKVYKMLAKRNYDVKIEQHNGQWVVTAS", "folding stability dG": 1.91},
      {"variant": "EIHIRLNGEEQARKVYKMLAKRNYDVKIEQHNGQWVVTAS", "folding stability dG": 2.35},
      {"variant": "EIHIRKNGEEQARKVYKMLAKRNYDVKIEQHNGQWVVTAS", "folding stability dG": 0.706},
      {"variant": "EIHIRPNGEEQARKVYKMLAKRNYDVKIEQHNGQWVVTAS", "folding stability dG": 0.496},
      {"variant": "EIHIRNNGEEQARKVYKMLAKRNYDVKIEQHNGQWVVTAS", "folding stability dG": 0.438},
      {"variant": "EIHIRYNGEEQARKVYKMLAKRNYDVKIEQHNGQWVVTAS", "folding stability dG": 1.89},
      {"variant": "EIHIRGNGEEQARKVYKMLAKRNYDVKIEQHNGQWVVTAS", "folding stability dG": 0.494},
      {"variant": "EIHIRINGEEQARKVYKMLAKRNYDVKIEQHNGQWVVTAS", "folding stability dG": 2.02},
      {"variant": "EIHIRANGEEQARKVYKMLAKRNYDVKIEQHNGQWVVTAS", "folding stability dG": 1.73},
      {"variant": "EIHIRDNGEEQARKVYKMLAKRNYDVKIEQHNGQWVVTAS", "folding stability dG": -0.07},
      {"variant": "EIHIRFNGEEQARKVYKMLAKRNYDVKIEQHNGQWVVTAS", "folding stability dG": 3.03},
      {"variant": "EIHIVTNGEEQARKVYKMLAKRNYDVKIEQHNGQWVVTAS", "folding stability dG": 2.32},
      {"variant": "EIHIWTNGEEQARKVYKMLAKRNYDVKIEQHNGQWVVTAS", "folding stability dG": 2.43},
      {"variant": "EIHIITNGEEQARKVYKMLAKRNYDVKIEQHNGQWVVTAS", "folding stability dG": 2.4},
      {"variant": "EIHIFTNGEEQARKVYKMLAKRNYDVKIEQHNGQWVVTAS", "folding stability dG": 2.36},
      {"variant": "EIHITTNGEEQARKVYKMLAKRNYDVKIEQHNGQWVVTAS", "folding stability dG": 1.97},
      {"variant": "EIHIPTNGEEQARKVYKMLAKRNYDVKIEQHNGQWVVTAS", "folding stability dG": 1.19},
      {"variant": "EIHIATNGEEQARKVYKMLAKRNYDVKIEQHNGQWVVTAS", "folding stability dG": 1.53},
      {"variant": "EIHIQTNGEEQARKVYKMLAKRNYDVKIEQHNGQWVVTAS", "folding stability dG": 1.52},
      {"variant": "EIHIHTNGEEQARKVYKMLAKRNYDVKIEQHNGQWVVTAS", "folding stability dG": 1.96},
      {"variant": "EIHISTNGEEQARKVYKMLAKRNYDVKIEQHNGQWVVTAS", "folding stability dG": 1.45},
      {"variant": "EIHINTNGEEQARKVYKMLAKRNYDVKIEQHNGQWVVTAS", "folding stability dG": 1.18},
      {"variant": "EIHIETNGEEQARKVYKMLAKRNYDVKIEQHNGQWVVTAS", "folding stability dG": 1.34},
      {"variant": "EIHIGTNGEEQARKVYKMLAKRNYDVKIEQHNGQWVVTAS", "folding stability dG": 0.692},
      {"variant": "EIHICTNGEEQARKVYKMLAKRNYDVKIEQHNGQWVVTAS", "folding stability dG": 2.85},
      {"variant": "EIHIDTNGEEQARKVYKMLAKRNYDVKIEQHNGQWVVTAS", "folding stability dG": 0.471},
      {"variant": "EIHIKTNGEEQARKVYKMLAKRNYDVKIEQHNGQWVVTAS", "folding stability dG": 1.75},
      {"variant": "EIHIYTNGEEQARKVYKMLAKRNYDVKIEQHNGQWVVTAS", "folding stability dG": 2.52},
      {"variant": "EIHIMTNGEEQARKVYKMLAKRNYDVKIEQHNGQWVVTAS", "folding stability dG": 1.98},
      {"variant": "EIHILTNGEEQARKVYKMLAKRNYDVKIEQHNGQWVVTAS", "folding stability dG": 2.08},
      {"variant": "EIHIRTHGEEQARKVYKMLAKRNYDVKIEQHNGQWVVTAS", "folding stability dG": 1.73},
      {"variant": "EIHIRTPGEEQARKVYKMLAKRNYDVKIEQHNGQWVVTAS", "folding stability dG": 1.32},
      {"variant": "EIHIRTGGEEQARKVYKMLAKRNYDVKIEQHNGQWVVTAS", "folding stability dG": 1.5},
      {"variant": "EIHIRTAGEEQARKVYKMLAKRNYDVKIEQHNGQWVVTAS", "folding stability dG": 1.95},
      {"variant": "EIHIRTKGEEQARKVYKMLAKRNYDVKIEQHNGQWVVTAS", "folding stability dG": 1.77},
      {"variant": "EIHIRTLGEEQARKVYKMLAKRNYDVKIEQHNGQWVVTAS", "folding stability dG": 1.81},
      {"variant": "EIHIRTDGEEQARKVYKMLAKRNYDVKIEQHNGQWVVTAS", "folding stability dG": 1.82},
      {"variant": "EIHIRTFGEEQARKVYKMLAKRNYDVKIEQHNGQWVVTAS", "folding stability dG": 2.03},
      {"variant": "EIHIRTIGEEQARKVYKMLAKRNYDVKIEQHNGQWVVTAS", "folding stability dG": 1.69},
      {"variant": "EIHIRTMGEEQARKVYKMLAKRNYDVKIEQHNGQWVVTAS", "folding stability dG": 1.69},
      {"variant": "EIHIRTEGEEQARKVYKMLAKRNYDVKIEQHNGQWVVTAS", "folding stability dG": 1.69},
      {"variant": "EIHFRTNGEEQARKVYKMLAKRNYDVKIEQHNGQWVVTAS", "folding stability dG": 2.16},
      {"variant": "EIHLRTNGEEQARKVYKMLAKRNYDVKIEQHNGQWVVTAS", "folding stability dG": 1.12},
      {"variant": "EIHHRTNGEEQARKVYKMLAKRNYDVKIEQHNGQWVVTAS", "folding stability dG": 0.442},
      {"variant": "EIHYRTNGEEQARKVYKMLAKRNYDVKIEQHNGQWVVTAS", "folding stability dG": 2.12},
      {"variant": "EIHSRTNGEEQARKVYKMLAKRNYDVKIEQHNGQWVVTAS", "folding stability dG": -0.073},
      {"variant": "EIHWRTNGEEQARKVYKMLAKRNYDVKIEQHNGQWVVTAS", "folding stability dG": 1.65},
      {"variant": "EIHNRTNGEEQARKVYKMLAKRNYDVKIEQHNGQWVVTAS", "folding stability dG": -0.203},
      {"variant": "EIHVRTNGEEQARKVYKMLAKRNYDVKIEQHNGQWVVTAS", "folding stability dG": 1.46},
      {"variant": "EIHMRTNGEEQARKVYKMLAKRNYDVKIEQHNGQWVVTAS", "folding stability dG": 0.855},
      {"variant": "EIHGRTNGEEQARKVYKMLAKRNYDVKIEQHNGQWVVTAS", "folding stability dG": -0.953},
      {"variant": "EIHKRTNGEEQARKVYKMLAKRNYDVKIEQHNGQWVVTAS", "folding stability dG": -0.031},
      {"variant": "EIHTRTNGEEQARKVYKMLAKRNYDVKIEQHNGQWVVTAS", "folding stability dG": -0.094},
      {"variant": "EIHQRTNGEEQARKVYKMLAKRNYDVKIEQHNGQWVVTAS", "folding stability dG": 0.032},
      {"variant": "EIHRRTNGEEQARKVYKMLAKRNYDVKIEQHNGQWVVTAS", "folding stability dG": 0.105},
      {"variant": "EIHPRTNGEEQARKVYKMLAKRNYDVKIEQHNGQWVVTAS", "folding stability dG": -0.436}
    ]}
  ]
}
